Results taken from patent US20160083712A1 (UNIVERSITY OF LEICESTER, published 2016).

Biological target: the molecule itself
Assay: crystal structure, PISA analysis of assemblies

B1: CSN51-257 wild type (human CSN5 residues 1-257, GST tag cleaved off) (enzyme)
chain: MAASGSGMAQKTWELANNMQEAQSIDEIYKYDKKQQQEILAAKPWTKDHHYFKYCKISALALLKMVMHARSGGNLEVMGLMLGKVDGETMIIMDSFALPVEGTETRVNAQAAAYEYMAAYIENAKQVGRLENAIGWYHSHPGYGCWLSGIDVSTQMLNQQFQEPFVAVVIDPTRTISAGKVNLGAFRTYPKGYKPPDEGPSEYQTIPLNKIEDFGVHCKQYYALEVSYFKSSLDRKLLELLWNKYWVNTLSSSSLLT
notes: Purified after cleavage by GST-3C protease; Crystallised form (PDB 4F70; SeMet-labelled for the crystal); Monomer-dimer equilibrium in solution; also called WT protein
binding result: binds
